Measurements from patent US20090170219.

Test system: IgG Fc fragment (IgG-Fc) (human), P01857-1
Test: SPR
Settings: 2'-F at all pyrimidines; solution A

Row | Sequence | Kd [pM]
1 | GGGACACAAUGGACGAAAGGUGCUCCAACUAAAUUUGGAACUUUCCACCCAUAAUAACGGCCGACAUGAGAG [SEQ ID NO:8] | 7000
2 | GGGACACAAUGGACGACUACAAGGUGCUCCUUGAAAUGUUAAAUGAGGAACUUGUAACGGCCGACAUGAGAG [SEQ ID NO:5] | 0.6
3 | GGGACACAAUGGACGAGUUACAGGUGCUCCAUCAACAAAAUGUUACAUGGAACUGUAACGGCCGACAUGAGAG [SEQ ID NO:1] | 1.1
4 | GGGACACAAUGGACGGCCAACGUUAACUGGAACUGUAAAUCAGGUGCUCGAGAUAACGGCCGACAUGAGAG [SEQ ID NO:4] | 6
5 | GGGACACAAUGGACGGCGUAAAAUGGAACCUGGGUUAGAAUAUCGGGGGUGCUCCGUAACGGCCGACAUGAGAG [SEQ ID NO:3] | 0.5
6 | GGGACACAAUGGACGGCUGGUAAGGUGCUCGGAAUGGAACUCGUCAUUCGGAACUUAACGGCCGACAUGAGAG [SEQ ID NO:6] | 3000
7 | GGGACACAAUGGACGGGUGUUACAGGUGCUUGAUAAAGGUAGAAAAUCAAACUGUAACGGCCGACAUGAGAG [SEQ ID NO:7] | 1
8 | GGGACACAAUGGACGUCAAAGAAGAGGUGCUCUGCGAGCCACGCGGAACUCUAUAACGGCCGACAUGAGAG [SEQ ID NO:2] | 7400
